{"source": "patent US20040254341", "proteins": {"B1": {"name": "Hu-Asp2 expressed in a stable HEK-293 derivative cell line that expresses higher levels of Hu-Asp2 (protein)", "chain": "ETDEEPEEPGRRGSFVEMVDNLRGKSGQGYYVEMTVGSPPQTLNILVDTGSSNFAVGAAPHPFLHRYYQRQLSSTYRDLRKGVYVPYTQGKWEGELGTDLVSIPHGPNVTVRANIAAITESDKFFINGSNWEGILGLAYAEIARPDDSLEPFFDSLVKQTHVPNLFSLHLCGAGFPLNQSEVLASVGGSMIIGGIDHSLYTGSLWYTPIRREWYYEVIIVRVEINGQDLKMDCKEYNYDKSIVDSGTTNLRLPKKVFEAAVKSIKAASSTEKFPDGFWLGEQLVCWQAGTTPWNIFPVISLYLMGEVTNQSFRITILPQQYLRPVEDVATSQDDCYKFAISQSSTGTVMGAVIMEGFYVVFDRARKRIGFAVSACHVHDEFRTAAVEGPFVTLDMEDCGYNIPQTDESTLMTIAYVMAAICALFMLPLCLMVCQWRCLRCLRQQHDDFADDISLLK"}}, "biological_target": "APP695 with C-terminal dilysine and the mutation KM-DA594-597 to SYEA594-597, expressed in HEK 293 derivative cells, P05067", "sequence (P05067 whole entry, looked up, change not shown, tested part not stated)": "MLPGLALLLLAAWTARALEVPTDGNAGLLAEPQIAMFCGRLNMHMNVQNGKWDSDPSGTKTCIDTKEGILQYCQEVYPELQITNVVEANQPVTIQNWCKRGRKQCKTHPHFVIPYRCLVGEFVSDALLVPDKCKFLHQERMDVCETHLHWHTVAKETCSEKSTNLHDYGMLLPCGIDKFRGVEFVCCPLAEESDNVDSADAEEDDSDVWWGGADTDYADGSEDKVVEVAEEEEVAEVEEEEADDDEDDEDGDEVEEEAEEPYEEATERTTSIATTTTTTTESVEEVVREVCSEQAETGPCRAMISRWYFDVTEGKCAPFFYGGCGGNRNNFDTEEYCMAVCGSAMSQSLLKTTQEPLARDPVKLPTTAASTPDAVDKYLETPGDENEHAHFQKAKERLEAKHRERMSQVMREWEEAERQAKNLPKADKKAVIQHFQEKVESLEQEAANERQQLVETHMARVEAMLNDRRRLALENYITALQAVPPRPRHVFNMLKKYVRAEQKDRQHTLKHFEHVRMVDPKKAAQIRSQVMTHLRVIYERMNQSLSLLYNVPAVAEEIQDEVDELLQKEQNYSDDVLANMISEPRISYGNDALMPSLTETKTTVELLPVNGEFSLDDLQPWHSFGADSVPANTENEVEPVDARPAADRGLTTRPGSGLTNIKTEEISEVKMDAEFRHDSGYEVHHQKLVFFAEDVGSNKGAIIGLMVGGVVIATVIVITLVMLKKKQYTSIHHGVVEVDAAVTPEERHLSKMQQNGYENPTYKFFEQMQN", "data": [{"protein": "B1", "values": [{"measurement": "β-secretase cleavage product CTF-99, Western blot with antibody C8", "result": "both mutant APP variants were proficiently cleaved by Asp2"}]}]}
